# Reference: publication PMC12774660 (Nucleic Acids Research, 2026)
# T1: CPSF73 (human, UniProt Q9UKF6 1-684)
# T1 sequence: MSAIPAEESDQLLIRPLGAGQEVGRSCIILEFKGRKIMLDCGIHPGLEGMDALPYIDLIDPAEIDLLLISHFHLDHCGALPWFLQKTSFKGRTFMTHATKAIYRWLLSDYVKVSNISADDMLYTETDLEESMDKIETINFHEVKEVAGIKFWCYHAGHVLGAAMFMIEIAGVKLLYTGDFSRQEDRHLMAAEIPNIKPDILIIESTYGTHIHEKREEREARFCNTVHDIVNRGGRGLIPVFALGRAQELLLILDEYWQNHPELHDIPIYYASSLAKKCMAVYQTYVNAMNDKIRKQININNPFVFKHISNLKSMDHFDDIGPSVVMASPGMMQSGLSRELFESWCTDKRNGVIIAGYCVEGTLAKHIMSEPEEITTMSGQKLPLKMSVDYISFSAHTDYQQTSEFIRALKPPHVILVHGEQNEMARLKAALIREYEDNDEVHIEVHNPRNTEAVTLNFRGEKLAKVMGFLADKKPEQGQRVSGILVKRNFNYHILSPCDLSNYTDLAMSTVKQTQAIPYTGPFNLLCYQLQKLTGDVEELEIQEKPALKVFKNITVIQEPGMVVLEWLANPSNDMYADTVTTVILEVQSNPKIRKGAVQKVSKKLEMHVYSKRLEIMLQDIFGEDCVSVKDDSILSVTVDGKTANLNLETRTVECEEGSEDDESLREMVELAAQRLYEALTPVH
# Molecular target: T1, CPSF73
# Test: cell-based or functional assay
binder,measurement,value
"Lsm11 R109E/I110A/R112E/L113A/R114E/L116A (natural protein, human, UniProt P83369 1-360, looked up) MEERERGARSAGAGSPARPPSPRLDVSSDSFDPLLALYAPRLPPIPYPNAPCFNNVAEYESFLRTGVRGGGRGRGRARGAAAGSGVPAAPGPSGRTRRRPDAPAPDPEEAQEAERAMVAKEEGDGAAGAGRRGPGRSRKAPRNVLTRMPLHEGSPLGELHRCIREGVKVNVHIRTFKGLRGVCTGFLVAFDKFWNMALTDVDETYRKPVLGKAYERDSSLTLTRLFDRLKLQDSSKKEADSKSAVEDSTLSRYSQTSTWKLASVWGRADTGRGSHKRSRSVPSSLQASAREESRSELSGRTTRTDGSSVGGTFSRATTLSRGQSRKKKRKPKVDYQQVFTRHINQIFIRGENVLLVHLAQ","cleavage activity of the U7 snRNP with sextuple mutant Lsm11 toward the H2a* substrate, compared to the wild-type, in the absence of SLBP",~3 fold lower
